Source: patent US20180037644A1 (Pfizer, published 2018)
Substitutions are numbered along the chain they refer to. Like-named read-outs stand apart in the source and are kept apart here.

T1: human IL-33 (mm2) (human, UniProt O95760 112-270)
T1 chain: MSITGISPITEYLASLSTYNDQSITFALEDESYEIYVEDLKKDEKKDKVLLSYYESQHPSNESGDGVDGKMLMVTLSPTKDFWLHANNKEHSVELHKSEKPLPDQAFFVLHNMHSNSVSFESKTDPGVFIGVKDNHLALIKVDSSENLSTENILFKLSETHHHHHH

T2: cynomolgus monkey IL-33 (cys mut) (cynomolgus monkey)
T2 chain: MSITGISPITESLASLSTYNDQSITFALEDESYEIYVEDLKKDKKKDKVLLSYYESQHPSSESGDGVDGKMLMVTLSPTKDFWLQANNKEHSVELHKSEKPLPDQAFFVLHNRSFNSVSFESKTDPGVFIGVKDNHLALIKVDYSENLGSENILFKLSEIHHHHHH

T3: human IL-33 WT (R&D) (human, UniProt O95760 112-270)
T3 sequence: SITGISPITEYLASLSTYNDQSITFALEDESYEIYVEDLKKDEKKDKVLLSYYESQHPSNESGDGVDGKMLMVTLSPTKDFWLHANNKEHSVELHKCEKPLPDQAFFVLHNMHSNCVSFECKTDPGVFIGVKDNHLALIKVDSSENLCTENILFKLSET

T4: human IL-33 WT, reduced with DTT (human, UniProt O95760 112-270)
T4 construct: Wild-type cysteines, FLAG tag in the entry; reduced with 3 mM DTT before use; also called huIL33 wt; hu IL-33 (WT + DTT)
T4 sequence: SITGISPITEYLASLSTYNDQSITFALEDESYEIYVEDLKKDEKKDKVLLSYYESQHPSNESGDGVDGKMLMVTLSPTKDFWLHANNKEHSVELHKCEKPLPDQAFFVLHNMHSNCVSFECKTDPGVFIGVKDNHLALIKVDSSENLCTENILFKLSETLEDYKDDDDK

B1: IL33-12 (antibody, human IgG1, kappa, V domains shown)
VH: EVQLVESGGGLVQPGGSLRLSCAASGFTFSSYWMYWVRQAPGKGLEWVASINNDGGNTYYLDSVKGRFTISRDNAKNSLYLQMNSLRAEDTAVYYCARGHYYYTSYSLGYWGQGTLVTVSS
VL: DIQMTQSPSSLSASVGDRVTITCKASQNINKHLDWYQQKPGKAPKLLIYFTNNLQTGVPSRFSGSGSGTDFTLTISSLQPEDFATYYCFQYNNGWTFGGGTKVEIKR
B2: IL33-45 (antibody, human IgG1, kappa, V domains shown)
VH: B1 VH with N52T, N53P, L61P
VL: B1 VL
B3: IL33-103 (antibody, human IgG1, kappa, V domains shown)
VH: B1 VH with S50A, N52T, N53P, D54N, N57E, L61P
VL: B1 VL
B4: IL33-117 (antibody, human IgG1, kappa, V domains shown)
VH: B1 VH with N52T, N53P, D54N, N57E, T58D, L61P
VL: B1 VL
B5: rat 7E8 Fab (Fab, V domains shown)
VH: EVQLVETGGGLVQPGRSLKLSCKTSGFTFSSYWMYWIRQAPGKGLEWVSSITPNGGNTYYPDSVKGRFTISRDNAENTIYLQMSSLRSEDTATYFCAKGHYYYTSYSLGYWGQGSLVTVSS
VL: EIQMTQSPSVLSASVGDRVTLSCKASQNINKHLDWYQQKLGEAPKLLIYFTNNLQTGIPSRFSGSGSGTDCTLTINSLQPGDVATYFCFQYNNGWTFGGGTKLELD
notes: Fab of the parental rat antibody; also called parental rat Fab 7E8

Legend:
human IL-33 (mm2) [1] = target: T1, human IL-33 (mm2); assay: cell-based or functional assay
[2] = target: T2, cynomolgus monkey IL-33 (cys mut); assay: cell-based or functional assay
human IL-33 (mm2) [3] = target: T1, human IL-33 (mm2); assay: cell-based or functional assay
[4] = target: T2, cynomolgus monkey IL-33 (cys mut); assay: cell-based or functional assay
human IL-33 WT (R&D) = target: T3, human IL-33 WT (R&D); assay: cell-based or functional assay
human IL-33 (mm2) [5] = target: T1, human IL-33 (mm2); assay: cell-based or functional assay
[6] = target: T2, cynomolgus monkey IL-33 (cys mut); assay: cell-based or functional assay
[7] = target: T4, human IL-33 WT, reduced with DTT; assay: SPR, IL-33 amine-coupled to CM5, rat Fab in solution, 37 C
Method: Parallel studies were performed with non-reduced IL-33 and with IL-33 samples that had been reduced with 3 mM DTT for 3 hr. at room temperature prior to immobilization. […] Flow cell 1 was activated and blocked for use as a reference flow cell. […] Dissociation was monitored for 3600 seconds. Biacore kinetic assays were conducted at 37° C. at a collection rate of 1 Hz on a Biacore T200 instrument (GE Healthcare). Rate constants and affinities were determined by fitting the resulting sensorgram data to a 1:1 model in Biacore T200 Evaluation software version 1.0 (GE Healthcare).

Row | Binder | IC50, HEK293 ST2 NFkB (human IL-33 (mm2) [1]) | IC50, HEK293 ST2 NFkB [2] | IC50, HEK293 ST2 NFkB WT IL-33 (human IL-33 WT (R&D)) | IC50, whole blood IFNγ (human IL-33 (mm2) [5]) | IC50, HEK293 ST2 NFkB cyno IL-33 [6] | also measured
1 | B1 | 0.14 nM | 0.943 nM | – | – | – | IC50, HEK293 ST2 NFkB (human IL-33 (mm2) [3]): 0.144 nM; IC50, HEK293 ST2 NFkB [4]: 3.46 nM
2 | B2 | 0.325 nM | 0.535 nM | – | – | – | –
3 | B3 | – | – | 0.178 nM | 0.104 nM | 0.07 nM | IC50, HEK293 ST2 NFkB mm2 (human IL-33 (mm2) [5]): 0.028 nM
4 | B4 | – | – | 0.155 nM | 0.106 nM | 0.052 nM | –
5 | B5 | – | – | – | – | – | Kd [7]: 0.0442 nM; koff [7]: 0.000116 s⁻¹; kon [7]: 2.55e+06 M⁻¹ s⁻¹
